According to patent US20200199241A1 (Chugai, published 2020):
Substitutions are numbered along the chain they refer to. In names and notes the source's numbering stands. Where two headings read alike, the source gives them in different places.

Legend:
[1] = target: T1, human FcRn (soluble human FcRn complexed with β2-microglobulin) (human, UniProt P61769 21-119, limits assumed); assay: SPR, antibody captured by Protein L, human FcRn as analyte, pH 7.0, 25 C
T1 construct: also called hFcRn

mouse FcγRI [2] = target: T2, mouse FcγRI (mouse, UniProt P26151 25-297); assay: SPR, antibody captured by Protein L, mouse FcγR as analyte, pH 7.4, 25 C
T2 construct: bought; also called mFcgRI; mFcgR 1
T2 sequence (looked up): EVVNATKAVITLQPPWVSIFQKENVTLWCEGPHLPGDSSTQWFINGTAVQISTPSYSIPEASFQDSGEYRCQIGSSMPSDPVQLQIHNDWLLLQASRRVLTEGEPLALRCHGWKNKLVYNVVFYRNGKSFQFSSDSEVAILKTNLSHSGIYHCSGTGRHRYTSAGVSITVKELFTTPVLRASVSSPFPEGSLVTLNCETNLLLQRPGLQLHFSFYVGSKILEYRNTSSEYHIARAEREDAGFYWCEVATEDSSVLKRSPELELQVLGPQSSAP

mouse FcγRIIb [3] = target: T3, mouse FcγRIIb (mouse, UniProt P08101 30-207, limits assumed); assay: as above
T3 construct: bought; also called mFcgRIIb; mFcgR IIb
T3 sequence (looked up): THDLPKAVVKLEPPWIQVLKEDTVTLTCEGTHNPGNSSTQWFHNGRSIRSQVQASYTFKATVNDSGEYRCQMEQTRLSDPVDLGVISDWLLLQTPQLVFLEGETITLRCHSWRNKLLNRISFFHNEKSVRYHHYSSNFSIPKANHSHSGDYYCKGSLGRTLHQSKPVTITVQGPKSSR

mouse FcγRIII [4] = target: T4, mouse FcγRIII (mouse, UniProt P08508 31-215); assay: as above
T4 construct: bought; also called mFcgRIII; mFcgR III
T4 sequence (looked up): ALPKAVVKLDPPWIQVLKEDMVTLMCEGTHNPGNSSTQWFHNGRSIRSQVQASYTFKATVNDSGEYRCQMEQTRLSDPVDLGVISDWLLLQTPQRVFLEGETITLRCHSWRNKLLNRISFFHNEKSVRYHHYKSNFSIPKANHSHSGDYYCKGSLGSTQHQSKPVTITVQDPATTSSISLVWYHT

mouse FcγRIV [5] = target: T5, mouse FcγRIV (mouse, UniProt A0A0B4J1G0 21-203); assay: as above
T5 construct: bought; also called mFcgRIV; mFcgR IV; the vendor's purification tag not given
T5 sequence: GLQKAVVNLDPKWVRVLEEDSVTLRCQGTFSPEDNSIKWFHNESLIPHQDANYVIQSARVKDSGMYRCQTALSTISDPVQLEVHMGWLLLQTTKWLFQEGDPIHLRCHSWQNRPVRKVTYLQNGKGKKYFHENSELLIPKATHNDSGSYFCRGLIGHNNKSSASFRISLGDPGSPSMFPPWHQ

[6] = target: T1, human FcRn (soluble human FcRn …); assay: SPR, antibody captured by Protein L, human FcRn as analyte, pH 7.0, 25 C; remark: listed apart in the source
human FcγRIIb [7] = target: T6, human FcγRIIb (human, UniProt P31994 43-217, limits assumed); assay: SPR, antibody captured by Protein L, human FcγR as analyte, pH 7.4, 25 C
T6 construct: also called hFcgRIIb; FcγIIB
T6 sequence: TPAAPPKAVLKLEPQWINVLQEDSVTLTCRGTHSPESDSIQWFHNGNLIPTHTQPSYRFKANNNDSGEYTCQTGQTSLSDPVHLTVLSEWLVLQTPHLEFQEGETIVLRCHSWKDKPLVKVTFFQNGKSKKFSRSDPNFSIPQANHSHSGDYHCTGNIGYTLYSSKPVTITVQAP

human FcγRIa [8] = target: T7, human FcγRIa (human, UniProt P12314 16-292, limits assumed); assay: as above
T7 construct: also called hFcgRIa; hFcgRI
T7 sequence (P12314 16-292 limits assumed): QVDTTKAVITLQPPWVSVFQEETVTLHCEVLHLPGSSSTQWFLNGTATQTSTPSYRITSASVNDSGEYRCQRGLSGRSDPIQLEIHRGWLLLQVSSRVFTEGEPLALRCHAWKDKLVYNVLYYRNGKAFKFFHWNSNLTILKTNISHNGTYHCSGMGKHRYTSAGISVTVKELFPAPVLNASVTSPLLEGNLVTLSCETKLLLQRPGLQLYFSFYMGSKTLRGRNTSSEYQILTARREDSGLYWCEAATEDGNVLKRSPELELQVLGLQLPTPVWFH

human FcγRIIa(R) [9] = target: T8, human FcγRIIa(R) (human, UniProt P12318 36-217); assay: as above
T8 construct: also called hFcgRIIa(R); FcγRIIa type R
T8 chain: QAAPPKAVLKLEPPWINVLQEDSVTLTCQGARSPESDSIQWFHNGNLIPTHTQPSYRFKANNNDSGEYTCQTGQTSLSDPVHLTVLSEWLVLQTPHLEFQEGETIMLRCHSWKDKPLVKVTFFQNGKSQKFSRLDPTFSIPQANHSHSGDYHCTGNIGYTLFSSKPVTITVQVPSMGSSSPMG

human FcγRIIa(H) [10] = target: T9, human FcγRIIa(H) (human, UniProt P12318 36-217); assay: as above
T9 construct: also called hFcgRIIa(H); FcγRIIa type H
T9 sequence: T8 chain with R133H

[11] = target: T10, human FcRn (complex with human β2-microglobulin) (human, UniProt P61769 21-119, limits assumed); assay: hFcRn KD, method not given
T10 construct: soluble human FcRn complexed with β2-microglobulin was used; also called hFcRn
T10 sequence (chain, as listed by the source limits assumed, chain 1 of 2): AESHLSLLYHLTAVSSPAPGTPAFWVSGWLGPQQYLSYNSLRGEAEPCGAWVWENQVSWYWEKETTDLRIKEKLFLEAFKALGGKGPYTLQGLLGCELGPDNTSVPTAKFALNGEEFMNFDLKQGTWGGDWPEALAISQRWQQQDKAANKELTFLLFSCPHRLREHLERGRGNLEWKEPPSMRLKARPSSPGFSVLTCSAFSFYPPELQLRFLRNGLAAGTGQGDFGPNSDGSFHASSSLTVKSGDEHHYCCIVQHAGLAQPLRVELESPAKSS
T10 sequence (P61769 21-119 limits assumed, chain 2 of 2): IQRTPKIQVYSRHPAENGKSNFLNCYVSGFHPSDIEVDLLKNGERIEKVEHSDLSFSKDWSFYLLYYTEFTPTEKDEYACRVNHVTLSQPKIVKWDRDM

human FcγRIIa(R) [12] = target: T11, human FcγRIIa(R) (human, UniProt P12318 36-217); assay: SPR, pH 7.4, antibody captured by Protein L
T11 construct: also called FcgRIIaR; hFcgRIIa(R)
T11 chain: T8 chain

human FcγRIIb [13] = target: T12, human FcγRIIb (human, UniProt P31994 43-217, limits assumed); assay: SPR, pH 7.4, antibody captured by Protein L
T12 construct: also called FcgRIIb; hFcgRIIb
T12 sequence: T6 sequence

[14] = target: T1, human FcRn (soluble human FcRn …); assay: SPR, antibody captured by Protein L, human FcRn as analyte, pH 7.0, 25 C; remark: listed apart in the source
human FcγRIIb [15] = target: T6, human FcγRIIb; assay: SPR, antibody captured by Protein L, human FcγR as analyte, pH 7.4, 25 C; remark: listed apart in the source
human FcγRIa [16] = target: T7, human FcγRIa; assay: as above; remark: listed apart in the source
human FcγRIIa(R) [17] = target: T8, human FcγRIIa(R); assay: as above
human FcγRIIa(H) [18] = target: T9, human FcγRIIa(H); assay: as above; remark: listed apart in the source
[19] = target: T1, human FcRn (soluble human FcRn …); assay: SPR, antibody captured by Protein L, human FcRn as analyte, pH 7.0, 25 C; remark: listed apart in the source
human FcγRIIb [20] = target: T6, human FcγRIIb; assay: SPR, antibody captured by Protein L, human FcγR as analyte, pH 7.4, 25 C; remark: listed apart in the source
human FcγRIa [21] = target: T7, human FcγRIa; assay: as above; remark: listed apart in the source
human FcγRIIa(R) [22] = target: T8, human FcγRIIa(R); assay: as above
human FcγRIIa(H) [23] = target: T9, human FcγRIIa(H); assay: as above; remark: listed apart in the source
mouse FcγRI [24] = target: T2, mouse FcγRI; assay: SPR (Biacore T100/T200): FcγR injected over the antibody held by mouse FcRn immobilised on a CM4 chip, pH 7.4, 25 C
mouse FcγRIV [25] = target: T5, mouse FcγRIV; assay: as above
mouse FcγRIIb [26] = target: T3, mouse FcγRIIb; assay: SPR (Biacore T100/T200): FcγR injected over the antibody held by mouse FcRn immobilised on a CM4 chip (simultaneous binding), pH 7.4, 25 C
mouse FcγRIII [27] = target: T4, mouse FcγRIII; assay: as above

T1 sequence (chain, as listed by the source limits assumed, chain 1 of 2): as the sequence (chain, as listed by the source limits assumed, chain 1 of 2) above
T1 sequence (P61769 21-119 limits assumed, chain 2 of 2): as the sequence (P61769 21-119 limits assumed, chain 2 of 2) above

B1: VH3/L(WT)-IgG1-F21 (VH3-IgG1-F21 heavy chain, L(WT)-CK light chain) (antibody)
heavy: QVQLQESGPGLVKPSETLSLTCAVSGHSISHDHAWSWVRQPPGEGLEWIGFISYSGITNYNPSLQGRVTISRDNSKNTLYLQMNSLRAEDTAVYYCARSLARTTAMDYWGEGTLVTVSSASTKGPSVFPLAPSSKSTSGGTAALGCLVKDYFPEPVTVSWNSGALTSGVHTFPAVLQSSGLYSLSSVVTVPSSSLGTQTYICNVNHKPSNTKVDKKVEPKSCDKTHTCPPCPAPELLGGPSVFLFPPKPKDTLYISRTPEVTCVVVDVSHEDPEVKFNWYVDGVEVHNAKTKPREEQYNSTYRVVSVLTPLHQDWLNGKEYKCKVSNKALPAPIEKTISKAKGQPREPQVYTLPPSRDELTKNQVSLTCLVKGFYPSDIAVEWESNGQPENNYKTTPPVLDSDGSFFLYSKLTVDKSRWQQGNVFSCSVMHEALHYHYTQKSLSLSP
light: not shown
notes: M252Y/V308P/N434Y; copies: 2 + 2
Kd [1]: 30 nM | BINDING AMOUNT (RU) (mouse FcγRI [2]): 315 RU | BINDING AMOUNT (RU) (mouse FcγRIIb [3]): 112 RU | BINDING AMOUNT (RU) (mouse FcγRIII [4]): 371 RU | BINDING AMOUNT (RU) (mouse FcγRIV [5]): 242 RU | Kd [6]: 30 nM | BINDING AMOUNT (RU) (human FcγRIIb [7]): 63.4 RU | BINDING AMOUNT (RU) (human FcγRIa [8]): 403 RU | BINDING AMOUNT (RU) (human FcγRIIa(R) [9]): 145 RU | BINDING AMOUNT (RU) (human FcγRIIa(H) [10]): 154 RU

B2: antibody with heavy chain VH3-IgG1-FA6a (Heavy Chain A) (antibody)
heavy: B1 heavy with T252V, T309Q, Q313A, D358K, E359K, Y438V
light: not shown
notes: T250V/M252Y/T307Q/V308P/Q311A/D356K/E357K/N434Y/Y436V
Kd [11]: 11 nM

B3: VH3-IgG1-F652/L(WT)-CK (antibody)
heavy: B1 heavy with P240D, P310V
light: not shown
notes: P238D in VH3-IgG1-F11; copies: 2 + 2
binding amount (human FcγRIIa(R) [12]): 9.1 RU | binding amount (human FcγRIIb [13]): 64 RU

B4: VH3/L(WT)-IgG1-F698 (antibody, name in EU numbering)
heavy: B1 heavy with N288E, T309Q, P310V, Q313A
light: not shown
notes: copies: 2 + 2
Kd [14]: 22 nM | BINDING AMOUNT (RU) (human FcγRIIb [15]): 42.1 RU | BINDING AMOUNT (RU) (human FcγRIa [16]): 392 RU | BINDING AMOUNT (RU) (human FcγRIIa(R) [17]): 117 RU | BINDING AMOUNT (RU) (human FcγRIIa(H) [18]): 116 RU | Kd [19]: 22 nM | BINDING AMOUNT (RU) (human FcγRIIb [20]): 42.1 RU | BINDING AMOUNT (RU) (human FcγRIa [21]): 392 RU | BINDING AMOUNT (RU) (human FcγRIIa(R) [22]): 117 RU | BINDING AMOUNT (RU) (human FcγRIIa(H) [23]): 116 RU

B5: mPM1-mIgG1-mF3 (mPM1H-mIgG1-mF3 and mPM1L-mk1) (antibody)
heavy: DVQLQESGPVLVKPSQSLSLTCTVTGYSITSDHAWSWIRQFPGNKLEWMGYISYSGITTYNPSLKSRISITRDTSKNQFFLQLNSVTTGDTSTYYCARSLARTTAMDYWGQGTSVTVSSAKTTPPSVYPLAPGSAAQTNSMVTLGCLVKGYFPEPVTVTWNSGSLSSGVHTFPAVLQSDLYTLSSSVTVPSSTWPSETVTCNVAHPASSTKVDKKIVPRDCGCKPCICTVPEVSSVFIFPPKPKDVLYITLEPKVTCVVVDISKDDPEVQFSWFVDDVEVHTAQTQPREEQFNSTFRSVSELPIMHQDWLNGKEFKCRVNSAAFPAPIEKTISKTKGRPKAPQVYTIPPPKEQMAKDKVSLTCMITDFFPEDITVEWQWNGQPAENYKNTQPIMDTDGSYFVYSKLNVQKSNWEAGNTFTCSVLHEGLKFHHTEKSLSHSPGK
light: DIQMTQTTSSLSASLGDRVTISCRASQDISSYLNWYQQKPDGTIKLLIYYTSRLHSGVPSRFSGSGSGTDYSLTINNLEQEDIATYFCQQGNTLPYTFGGGTKLEIKRADAAPTVSIFPPSSEQLTSGGASVVCFLNNFYPKDINVKWKIDGSERQNGVLNSWTDQDSKDSTYSMSSTLTLTKDEYERHNSYTCEATHKTSTSPIVKSFNRNEC
notes: copies: 2 + 2
binding result (mouse FcγRI [24]): no binding | binding result (mouse FcγRIV [25]): no binding | binding result (mouse FcγRIIb [26]): binds | binding result (mouse FcγRIII [27]): binds
